B1: Hammerhead Ribozyme (parent)
chain: ACCGGAUGUGCUUUCCGGUCUGAUGAGUCCGUGAGGACGAAACAG

Variants of: B1
Assay: self-cleavage, relative activity (ratio to wild type); higher = more cleavage; co-transcriptional
In the case of U12G U21C, the self-cleavage is reported as 0.807.
In the case of U12G U21A, the self-cleavage is reported as 0.455.
Variant U12G U21G has a self-cleavage of 0.334.
For U12G C15G, the self-cleavage was 0.819.
For U12G C15A, the self-cleavage was 1.09.
Work on U12G C15U yielded a self-cleavage of 0.823.
U13C G33C showed a self-cleavage of 0.889.
Variant U13C G33U has a self-cleavage of 1.14.
Variant U13C G33A has a self-cleavage of 1.37.
Work on U13C A42U yielded a self-cleavage of 0.327.
In the case of U13C A42C, the self-cleavage is reported as 0.313.
With U13C A42G the self-cleavage was 0.232.
U13C G45C gave a self-cleavage of 0.743.
With U13C G45A the self-cleavage was 0.878.
In the case of U13C G45U, the self-cleavage is reported as 0.965.
U12G U28G gave a self-cleavage of 0.685.
U12G U28A showed a self-cleavage of 0.666.
With U12G U28C the self-cleavage was 1.02.
For U13C C16U, the self-cleavage was 0.976.
For U13C C16A, the self-cleavage was 1.05.
With U13C C16G the self-cleavage was 0.666.
Work on U13G A37C yielded a self-cleavage of 0.96.
In the case of U13G A37G, the self-cleavage is reported as 0.868.
U13G A37U showed a self-cleavage of 0.625.
In the case of U13A G36A, the self-cleavage is reported as 0.732.
For U13A G36U, the self-cleavage was 0.713.
In the case of U13A G36C, the self-cleavage is reported as 1.03.
In the case of U13G G18C, the self-cleavage is reported as 0.696.
With U13G G18U the self-cleavage was 0.701.
Work on U13G G18A yielded a self-cleavage of 0.642.
U13C C15U gave a self-cleavage of 1.03.
With U13C C15G the self-cleavage was 0.728.
Work on U13C C15A yielded a self-cleavage of 0.834.
For U13C A34U, the self-cleavage was 1.12.
For U13C A34C, the self-cleavage was 1.02.
Work on U13C A34G yielded a self-cleavage of 0.776.
For U13G A41U, the self-cleavage was 0.272.
Work on U13G A41C yielded a self-cleavage of 0.348.
Variant U13G A41G has a self-cleavage of 0.423.
With U12G U32C the self-cleavage was 0.921.
Work on U12G U32A yielded a self-cleavage of 0.696.
With U12G U32G the self-cleavage was 0.813.
Variant U13C A37U has a self-cleavage of 0.482.
In the case of U13C A37G, the self-cleavage is reported as 1.26.
With U13C A37C the self-cleavage was 1.07.
With U13A A40U the self-cleavage was 0.379.
With U13A A40G the self-cleavage was 0.287.
Variant U13A A40C has a self-cleavage of 0.711.
U12G U13A showed a self-cleavage of 1.25.
For U12G U13G, the self-cleavage was 0.848.
For U12G U13C, the self-cleavage was 0.879.
U13A A34C gave a self-cleavage of 1.5.
U13A A34U showed a self-cleavage of 1.46.
Work on U13A A34G yielded a self-cleavage of 1.04.
Work on U13C C43G yielded a self-cleavage of 0.278.
With U13C C43A the self-cleavage was 0.35.
Variant U13C C43U has a self-cleavage of 0.499.
Variant U12G G31A has a self-cleavage of 1.2.
With U12G G31C the self-cleavage was 1.09.
Variant U12G G31U has a self-cleavage of 1.11.
U12G A40U showed a self-cleavage of 0.376.
In the case of U12G A40G, the self-cleavage is reported as 0.326.
Variant U12G A40C has a self-cleavage of 0.366.
U13C C30A showed a self-cleavage of 1.54.
U13C C30U showed a self-cleavage of 1.24.
For U13C C30G, the self-cleavage was 0.956.
Variant U12G C20A has a self-cleavage of 0.332.
U12G C20G showed a self-cleavage of 0.32.
U12G C20U gave a self-cleavage of 0.667.
U12G C16U showed a self-cleavage of 0.968.
Work on U12G C16G yielded a self-cleavage of 0.714.
U12G C16A gave a self-cleavage of 1.18.
Variant U13C G17A has a self-cleavage of 0.809.
Variant U13C G17C has a self-cleavage of 0.573.
Work on U13C G17U yielded a self-cleavage of 0.884.
U13G A26C gave a self-cleavage of 0.383.
U13G A26G showed a self-cleavage of 0.301.
U13G A26U showed a self-cleavage of 0.678.
Work on U13A U21C yielded a self-cleavage of 0.908.
U13A U21G showed a self-cleavage of 0.602.
With U13A U21A the self-cleavage was 0.707.
Variant U13A A44C has a self-cleavage of 0.619.
For U13A A44G, the self-cleavage was 1.8.
